Assay [1] concerns the target T1, MHC1/WT1 peptide complex (soluble, biotinylated MHC-WT1 loaded on streptavidin biosensor) (human).
T1 construct: also called WT1/HLA-A2 complex
Put plainly: ForteBio Octet QK, biotinylated MHC-WT1 on streptavidin biosensor, antibody at 20 µg/ml, 1:1 model. A general note: Biolayer interferometry detects binding as a change in optical thickness at a sensor tip.

For assay [2], the target named is T1, MHC1/WT1 peptide complex (soluble, …). In words: ForteBio Octet QK, biotinylated MHC-WT1 on streptavidin biosensor, antibody at 10 µg/ml, 1:1 model.

B1: ESK1-OKT3 (bi-specific), full length bi-specific antibody made from ESK1 and anti-CD3 OKT3 by 2-MEA reduction and re-oxidation (bispecific antibody)
heavy 1: not shown
light 1: not shown
heavy 2: not shown
light 2: DIQMTQSPSSLSASVGDRVTITCSASSSVSYMNWYQQTPGKAPKRWIYDTSKLASGVPSRFSGSGSGTDYTFTISSLQPEDIATYYCQQWSSNPFTFGQGTKLQITRTVAAPSVFIFPPSDEQLKSGTASVVCLLNNFYPREAKVQWKVDNALQSGNSQESVTEQDSKDSTYSLSSTLTLSKADYEKHKVYACEVTHQGLSSPVTKSFNRGEC
notes: also called ESK1/OKT3 bi-specific monoclonal antibody
On to B1, for which, in assay [1], the dissociation constant (Kd) (in general, the concentration at which binding is half-saturated) was 92.2 nM; the koff – broadly, the first-order rate constant of dissociation – was 0.0033 s⁻¹; the association rate constant (kon) (in general, the rate constant with which the complex forms) was found to be 35800 M⁻¹ s⁻¹.

B2: ESK1 (full-length antibody, parent of the ESK1-OKT3 bi-specific) (antibody, V domains shown)
VH: QMQLVQSGAEVKEPGESLRISCKGSGYSFTNFWISWVRQMPGKGLEWMGRVDPGYSYSTYSPSFQGHVTISADKSTSTAYLQWNSLKASDTAMYYCARVQYSGYYDWFDPWGQGTLVTVSS
VL: not shown
notes: also called ESK1 mAb
B2: in assay [2], the equilibrium dissociation constant (Kd) was 9.12 nM, the koff turned out to be 0.00499 s⁻¹ and the association rate constant (kon) was found to be 547000 M⁻¹ s⁻¹.

The values are drawn from patent US20160280796A1 (Memorial Sloan Kettering, published 2016).
